From US20220273751A1, “GPCR HETEROMER INHIBITORS AND USES THEREOF” (GPCR THERAPEUTICS, INC., priority 2019, published 2022)

Molecular target: CXCR4 (C-X-C Motif Chemokine Receptor 4) (human) (UniProt P61073)
Assay: cell-based or functional assay

Sequence of CXCR4 (C-X-C Motif Chemokine Receptor 4) (human) (P61073 whole entry): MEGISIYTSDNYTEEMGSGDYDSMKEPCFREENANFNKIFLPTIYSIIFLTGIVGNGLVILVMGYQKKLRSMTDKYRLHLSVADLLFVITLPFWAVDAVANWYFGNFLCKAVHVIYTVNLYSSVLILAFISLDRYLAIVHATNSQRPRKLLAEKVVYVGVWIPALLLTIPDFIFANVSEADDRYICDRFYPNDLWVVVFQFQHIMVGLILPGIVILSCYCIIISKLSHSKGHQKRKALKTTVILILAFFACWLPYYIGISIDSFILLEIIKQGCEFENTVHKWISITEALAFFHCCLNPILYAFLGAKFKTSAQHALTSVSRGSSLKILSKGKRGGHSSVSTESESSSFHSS

For BKT140 (peptide), the IC50 of Ca2+ response, MDA-MB-231 cells expressing CXCR4 alone was 0.579 µM, the IC50 of Ca2+ response, MDA-MB-231 cells with CXCR4 + ADRB2, with Carvedilol 600 nM was 0.00194 µM and the IC50 of Ca2+ response, MDA-MB-231 cells with CXCR4 + ADRB2, without Carvedilol was 0.0887 µM.
